Here are results for eight molecules from patent US20220120736A1, “METHODS AND ASSAYS FOR MODULATING GENE TRANSCRIPTION BY MODULATING CONDENSATES” (Whitehead Institute for Biomedical Research, priority 2018, published 2022).

Where no end group is shown, it is not given here.

The target of one data set is T1, MED1-IDR droplets (Homo sapiens, UniProt Q15648).
T1 construct: pETEC-MED1-IDR-GFP; Sabari et al., 2018; 948-1574; 6xHis (N); made in house; host or cells: E. coli LOBSTR
Kind of data set: In vitro droplet assay, TMR-labeled decapeptides with MED1-IDR-GFP. It is filed as biochemical. Particulars: 10 uM each, 125 mM NaCl, 10% PEG-8000. As for the experimental part:
Recombinant GFP or mCherry fusion proteins were concentrated and desalted to an appropriate protein concentration and 125 mM NaCl using Amicon Ultra centrifugal filters (30K MWCO, Millipore). Recombinant proteins were added to solutions at varying concentrations with indicated final salt and 10% PEG-8000 as crowding agent in Droplet Formation Buffer (50 mM Tris-HCl pH 7.5, 10% glycerol, 1 mM DTT). The protein solution was immediately loaded onto a homemade chamber comprising a glass slide with a coverslip attached by two parallel strips of double-sided tape. Slides were then imaged with an Andor confocal microscope with a 150× objective. Unless indicated, images presented are of droplets settled on the glass coverslip. For experiments with fluorescently labeled polypeptides, the indicated decapeptides were synthesized by the Koch Institute/MIT Biopolymers & Proteomics Core Facility with a TMR fluorescent tag. The protein of interest was added Buffer D with 125 mM NaCl and 10% Peg-8000 with the indicated polypeptide and imaged as described above. For FRAP of in vitro droplets 5 pulses of laser at a 50 us dwell time was applied to the droplet, and recovery was imaged on an Andor microscope every is for the indicated time periods. […] One microliter of this concentrated stock was used in a 10 uL droplet formation reaction to achieve a final concentration of 10 uM.

A short description of data set [1]: In vitro homotypic droplet formation assay. It is filed as physicochemical. Here is the method: Slides were then imaged on the Andor Revolution Spinning Disk Confocal using a 100× objective.
The CDK8-Mediator samples were purified as described (Meyer et al., 2008) with modifications. Prior to affinity purification, the P0.5M/QFT fraction was concentrated, to 12 mg/mL, by ammonium sulfate precipitation (35%). […] Affinity purification was carried out as described (Meyer et al., 2008), eluted material was loaded onto a 2.2 mL centrifuge tube containing 2 mL 0.15M KCl HEMG (20 mM HEPES, 0.1 mM EDTA, 2 mM MgCl2, 10% glycerol) and centrifuged at 50K RPM for 4 h at 4° C. This served to remove excess free GST-SREBP and to concentrate the CDK8-Mediator in the final fraction. Prior to droplet assays, purified CDK8-Mediator was concentrated using Microcon-30 kDa Centrifugal Filter Unit with Ultracel-30 membrane (Millipore MRCFOR030) to reach ˜300 nM of Mediator complex. Concentrated CDK8-Mediator was added to the droplet assay to a final concentration of ˜200 nM with or without 10 μM indicated GFP-tagged protein. Droplet reactions contained 10% PEG-8000 and 140 mM salt.
Proteins were stored in 10% glycerol, 50 mM Tris-HCl pH 7.5, 500 mM NaCl, 1 mM DTT. Amicon Ultra Centrifugal filters (30K or 50K MWCO, Millipore) were used to concentrate proteins to desired concentrations. […] Droplet assays were performed in 8-tube PCR strip. […]

The next data set has as its system MED1-GFP condensates. Description: FRAP of MED1-GFP condensates in mESCs. Particulars: ectopic expression in mESCs, untreated. It is filed as cell-based, mouse. As for the experimental part:
ATP depletion: Cells were cultured for 2 hours in glucose-free DMEM (Gibco, 11966025) supplemented with 0.5× B27 supplement and 0.5× N2 supplement followed by incubation with 5 mM 2-deoxy-glucose (Sigma, D6134) and 126 nM Oligomycin (Sigma, 75351) for 2 hours. Cellular ATP levels were measured using a bioluminescence assay (Invitrogen, A22066) following manufacturer's instructions. Cells expressing fluorescently tagged proteins were imaged ever 1 s for 20 s at a 100× objective on the Andor Revolution Spinning Disk Confocal, […] system and Metamorph acquisition software (W.M. Keck Microscopy Facility, MIT). One or two images were pre-bleach and on then approximately 0.5 μm^2 was bleached with the 488 nm laser of the quantifiable laser module (QLM). FRAP was performed on selecting region of interest with 5 pulses of 20 μs each. For FRAP analysis, florescence recovery was measured as fluorescence intensity of photobleached area normalized to the intensity of the unbleached area or the entire nucleus. Fluorescence intensity was measured with FIJI FRAP profiler plugin (code written by Jeff […], adapted from Tony Collins' Macbiophotonics plugins, available here: //worms.zoology.wisc.edu/research/4d/4d.html

A further data set deals with HCT116 cells. Kind of data set: FRAP of endogenously tagged mEGFP-β-catenin in HCT116 cells. It is filed as cell-based. Particulars: nuclear puncta, constitutive WNT-activated HCT116 cells. As for the experimental part:
FRAP was performed on LSM880 Airyscan microscope with 488 nm laser. Bleaching was performed over a rbleach≈1 um using 100% laser power and images were collected every two seconds. Fluorescence intensity was measured using FIJI. Background intensity was subtracted and values are reported relative to pre-bleaching time points.
Custom MATLAB™ scripts were written to process the intensity data, accounting for background photobleaching and normalization to pre-bleach intensity. Post bleach FRAP recovery data was averaged over 9 replicates for each cell-line and condition.

In another data set the target is T2, MED1-IDR-mCherry (human, UniProt Q15648 948-1574).
T2 construct: Recombinant from E. coli; Lacks the LXXLL motifs; also called mCherry-MED1-IDR
Description: in vitro droplet assay, 10 uM each, 125 mM NaCl, 10% PEG-8000.

The target in a further data set is T3, MED1-IDR-GFP (human, UniProt Q15648 948-1574).
T3 construct: Recombinant from E. coli
Description: in vitro droplet assay with TMR-labeled decapeptide, 125 mM NaCl, 10% PEG-8000.

For “Poly-E: TMR labeled glutamic acid decapeptide”, the “incorporation of TMR labeled decapeptide into MED1-IDR droplets” value with MED1-IDR droplets is listed as “incorporated into MED1-IDR droplets”; with MED1-IDR droplets (listed as glutamic acid peptides) it was “concentrated within”. For “GCN4: purified recombinant yeast GCN4-GFP”, the “concentration at which micron-sized droplets form alone” value in data set [1] (125 mM NaCl, 10% PEG-8000) worked out at 40 µM. As to “Poly-P: TMR labeled proline decapeptide (PPPPPPPPPP; also: TMR labeled, site not given here)”, the “incorporation of TMR labeled decapeptide into MED1-IDR droplets” value with MED1-IDR droplets is on record as “not incorporated into MED1-IDR droplets”. Consider “MED1-GFP: full-length human MED1 fused to mEGFP, ectopically expressed in mESCs”, for which, in the data set on MED1-GFP condensates, the apparent diffusion coefficient is on record as 0.36±0.13 μm2/s.

B1: β-catenin: mEGFP-tagged β-catenin at the endogenous locus in HCT116 cells (protein)
chain: ATQADLMELDMAMEPDRKAAVSHWQQQSYLDSGIHSGATTTAPSLSGKGNPEEEDVDTSQVLYEWEQGFSQSFTQEQVADIDGQYAMTRAQRVRAAMFPETLDEGMQIPSTQFDAAHPTNVQRLAEPSQMLKHAVVNLINYQDDAELATRAIPELTKLLNDEDQVVVNKAAVMVHQLSKKEASRHAIMRSPQMVSAIVRTMQNTNDVETARCTAGTLHNLSHHREGLLAIFKSGGIPALVKMLGSPVDSVLFYAITTLHNLLLHQEGAKMAVRLAGGLQKMVALLNKTNVKFLAITTDCLQILAYGNQESKLIILASGGPQALVNIMRTYTYEKLLWTTSRVLKVLSVCSSNKPAIVEAGGMQALGLHLTDPSQRLVQNCLWTLRNLSDAATKQEGMEGLLGTLVQLLGSDDINVVTCAAGILSNLTCNNYKNKMMVCQVGGIEALVRTVLRAGDREDITEPAICALRHLTSRHQEAEMAQNAVRLHYGLPVVVKLLHPPSHWPLIKATVGLIRNLALCPANHAPLREQGAIPRLVQLLVRAHQDTQRRTSMGGTQQQFVEGVRMEEIVEGCTGALHILARDVHNRIVIRGLNTIPLFVQLLYSPIENIQRVAAGVLCELAQDKEAAEAIEAEGATAPLTELLHSRNEGVATYAAAVLFRMSEDKPQDYKKRLSVELTSSLFRTEPMAWNETADLGLDIGAQGEPLGYRQDDPSYRSFHSGGYGQDALGMDPMMEHEMGGHHPGADYPVDGLPDLGHAQDLMDGLPPGDSNQLAWFDTDL
modifications: left off: large carriers; small tags and cut ends
notes: mEGFP-tagged β-catenin at the endogenous locus in HCT116 cells
Take B1: in the data set with HCT116 cells, the “approximate apparent diffusion coefficient” value is about 0.004±0.003 μm^2/s.

B2: ER-GFP (receptor, not shown: large carriers; small tags and cut ends)
chain: MTMTLHTKASGMALLHQIQGNELEPLNRPQLKIPLERPLGEVYLDSSKPAVYNYPEGAAYEFNAAAAANAQVYGQTGLPYGPGSEAAAFGSNGLGGFPPLNSVSPSPLMLLHPPPQLSPFLQPHGQQVPYYLENEPSGYTVREAGPPAFYRPNSDNRRQGGRERLASTNDKGSMAMESAKETRYCAVCNDYASGYHYGVWSCEGCKAFFKRSIQGHNDYMCPATNQCTIDKNRRKSCQACRLRKCYEVGMMKGGIRKDRRGGRMLKHKRQRDDGEGRGEVGSAGDMRAANLWPSPLMIKRSKKNSLALSLTADQMVSALLDAEPPILYSEYDPTRPFSEASMMGLLTNLADRELVHMINWAKRVPGFVDLTLHDQVHLLECAWLEILMIGLVWRSMEHPGKLLFAPNLLLDRNQGKCVEGMVEIFDMLLATSSRFRMMNLQGEEFVCLKSIILLNSGVYTFLSSTLKSLEEKDHIHRVLDKITDTLIHLMAKAGLTLQQQHQRLAQLLLILSHIRHMSNKGMEHLYSMKCKNVVPLYDLLLEMLDAHRLHAPTSRGGASVEETDQSHLATAGSTSSHSLQKYYITGEAEGFPATV
notes: Tested without ligand, with estrogen (beta-estradiol) and with tamoxifen (4-hydroxytamoxifen); also called estrogen receptor; GFP labeled ER
Consider B2, for which the binding result with MED1-IDR-mCherry is recorded as “binds”.

B3: MED1-IDR: recombinant GFP fusion of the MED1 intrinsically disordered region (948-1574) (protein)
chain: EHHSGSQGPLLTTGDLGKEKTQKRVKEGNGTSNSTLSGPGLDSKPGKRSRTPSNDGKSKDKPPKRKKADTEGKSPSHSSSNRPFTPPTSTGGSKSPGSAGRSQTPPGVATPPIPKITIQIPKGTVMVGKPSSHSQYTSSGSVSSSGSKSHHSHSSSSSSSASTSGKMKSSKSEGSSSSKLSSSMYSSQGSSGSSQSKNSSQSGGKPGSSPITKHGLSSGSSSTKMKPQGKPSSLMNPSLSKPNISPSHSRPPGGSDKLASPMKPVPGTPPSSKAKSPISSGSGGSHMSGTSSSSGMKSSSGLGSSGSLSQKTPPSSNSCTASSSSFSSSGSSMSSSQNQHGSSKGKSPSRNKKPSLTAVIDKLKHGVVTSGPGGEDPLDGQMGVSTNSSSHPMSSKHNMSGGEFQGKREKSDKDKSKVSTSGSSVDSSKKTSESKNVGSTGVAKIIISKHDGGSPSIKAKVTLQKPGESSGEGLRPQMASSKNYGSPLISGSTPKHERGSPSHSKSPAYTPQNLDSESESGSSIAEKSYQNSPSSDDGIRPLPEYSTEKHKKHKKEKKKVKDKDRDRDRDKDRDKKKSHSIKPESWSKSPISSDQSLSMTSNTILSADRPSRLSPDFMIGEEDDDLM
modifications: left off: large carriers; small tags and cut ends
Regarding B3, the “lowest concentration tested, at which droplets were observed” value in data set [1] (droplet formation buffer with 10% PEG-8000, range tested 0.6 to 20 μM) turned out to be 0.6 µM.

B4: TMR-Poly-P Peptide (peptide)
peptide: PPPPPPPPPP
modifications: also: TMR fluorescent tag, site not given here
notes: also called proline decapeptide
B4: the binding result in the data set with MED1-IDR-GFP is reported as “no binding (tested: 10 uM)”.
